Residue numbers refer to the chain shown, from its start.

First the molecules themselves.
B1: antibody 281 (antibody, V domains shown)
VH: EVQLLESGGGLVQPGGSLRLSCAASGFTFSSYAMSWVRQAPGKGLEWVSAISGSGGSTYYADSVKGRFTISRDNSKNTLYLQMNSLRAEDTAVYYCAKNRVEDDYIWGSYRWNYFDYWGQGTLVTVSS
VL: QSALTQPASVSGSPGQSITISCTGTSSDVGSYNLVSWYQQHPGKAPKLMIYEVSKRPSGVSNRFSGSKSGNTASLTISGLQAEDEADYYCCSYAGSSTHVVFGGGTKLTVL
B2: antibody 265 (antibody, V domains shown)
VH: EVQLVQSGAEVKKPGATVKVSCKFSGDTFSHYYIHWVQQAPGKGLEWMGLVDPQDGESEYAQKFQGKVTITADTSIDTSYLEVTSLRFDDTAFYFCATRGMSGAFDRWGQGTLVTVSS
VL: DIVMTQSPDSLAVSLGERATINCKSSQSILSTSNNKNYLAWYQQKPGQPPKLLIYWASTRESGVPDRFSGGGSGTDFTLTISSLQAEDVAVYYCQQYYRTAYTTPIYTFGQGTKLEIK
B3: antibody 290 (antibody, V domains shown)
VH: QVHLVQSGAEVKKPGASVKVSCAASGYTFNNYGVSWVRQAPGQGLEWMGWISASNGNTKYAQNLQGRVTMTTDTSTSTAYMELRSLRSDDTAVYYCARDLVGPTAPNYYYGMDVWGQGTAVTVSS
VL: QSVLTQPPSVSGAPGQRVTISCTGSSSSIGAGYDVHWYQQLPGTAPKLLIYANSNRPSGVPDRLSGSKSGTSASLAITGLQAEDEADYYCQSYDSSLSGYVFGTGTKVTVL
B4: antibody 273 (antibody, V domains shown)
VH: QVQLVQSGAEVKKPGASVKVSCKVSGYTLTELSMHWVRQAPGKGLEWMGGFDPEDGETIYAQKFQGRVTMTEDTSTDTAYMELSSLRSEDTAVYYCATAPGYYDSSAPQPINWFDPWGQGTLVTVSS
VL: QSALTQPASVSGSPGQSITISCTGTSSDVGSYNLVSWYQQHPGKAPKLMIYEVSKRPSGVSNRFSGSKSGNTASLTISGLQAEDEADYYCCSYAGSSTLVFGGGTKLTVL
B5: antibody 295 (antibody, V domains shown)
VH: QVQLQESGPGLVKPSQTLSLTCTVSGGSISSSDYYWSWIRQPPGKGLEWIGYIYYSGSTYYNPSLKSRVTISVDTSKNQFSLKLSSVTAADTAVYYCARVVGYCSSTSCYVDYWGQGTLVTVSS
VL: EIVLTQSPATLSLSPGERVTLSCRASQSVSSYLAWYQQKPGQAPRLLIYDASNRATGIPARFSGSGSGTDFTLTISSLEPEDFAVYYCQQRSNWPPGLTFGGGTKVEIK
B6: antibody 299 (antibody, V domains shown)
VH: not shown
VL: EIVLTQSPATLSLSPGERATLSCRASQSVSSYLAWYQQKPGQAPRLLIYDASNRATGIPARFSGSGSGTDFTLTISSLEPEDFAVYYCQQRSNWPWTFGQGTKVEIK
B7: antibody 263 (antibody, V domains shown)
VH: EVQLVQSGAEVKKPGATVKISCKVSGYTFTDYYMHWVQQAPGKGLEWMGLVDPEDGETIYAEKFQGRVTITADTSTDTAYMELSSLRSDDTAVYYCTTDLAFTIFGGRRGFDPWGQGTLVTVSS
VL: DIQLTQSPSFLSASVGDRVTITCRASQGISSYLAWYQQKPGKAPKLLIYAASTLQSGVPSRFSGSGSGTEFTLTISSLQPEDFATYYCQQLNSYDFGQGTRLEIK
B8: antibody 301 (antibody, V domains shown)
VH: QVQLVQSGAEVKKPGASVKVSCKVSGYTLTELSMHWVRQAPGKGLEWMGGFDPEDGETIYAQKFQGRVTMTEDTSTDTAYMELSSLRSEDTAVYYCATAFCGGDCYPPDALDIWGQGTMVTVSS
VL: DIQMTQSPSSVSASVGDRVTITCRASQGISSWLAWYQQKPGKAPKLLIYAASSLQSGVPSRFSGSGSGTDFTLTISSLQPEDFATYYCQQANSFPLTFGGGTKVEIK
B9: antibody 288 (antibody, V domains shown)
VH: EVQLVESGGGLVQPGGSLRLSCAASGFTFSSYDMHWVRQATGKGLEWVSAIGTAGDTYYPGSVKGRFTISRENAKNSLYLQMNSLRAGDTAVYYCARGANRDYDILTGYYSYYYYGMDVWGQGTTVTVSS
VL: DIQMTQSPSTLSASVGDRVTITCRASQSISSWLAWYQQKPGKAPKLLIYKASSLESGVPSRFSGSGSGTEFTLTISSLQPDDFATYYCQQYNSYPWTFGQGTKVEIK
B10: antibody 266 (antibody, V domains shown)
VH: QVQLVESGGGVVQPGRSLRLSCAASGFNLSNYAMHWVRQPSGKGLEWVSLISYDGSIKYYTDSVKGRFTVSGDNSKNTLFLQMNSLRPDDSALYYCVRGGVSGPNSFDMWGQGTTVTVSS
VL: DVVMTQSPLSLPVTLGQPASISCRSSQSLVYSDGNTYVNWFQQRPGQSPRRLIYQVSIRASGVPDRFSGSGSGTDFALKISRVEAEDVGVYYCMQGTHWPVTFGQGTKVEIK
B11: antibody 264 (antibody, V domains shown)
VH: QVHLVESGGGVVQPGRSLRLSCAASGFTLTSYAMHWVRQAPGKGLEWVALISYDGSVKKYAESVKGRITVSGDNSRNTLHLQINTLRADDTAVYYCVRGGVSGPNSFDLWGQGTMVTVSS
VL: B10 VL with V30E, I58N, A77T, K79Q, V90I
B12: antibody 303 (antibody, V domains shown)
VH: B10 VH with N31S, P40A, T61A, T78M, P88A, S106A, M109I
VL: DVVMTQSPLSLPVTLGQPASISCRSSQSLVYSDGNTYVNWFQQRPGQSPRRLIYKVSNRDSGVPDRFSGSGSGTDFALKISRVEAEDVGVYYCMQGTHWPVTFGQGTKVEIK
B13: antibody 276 (antibody, V domains shown)
VH: QVQLQESGPGLVKPSQTLSLTCTVSGDSISSGGYYWSWIRQHPGKGLEWIGYIYYSGSAYYNPSLKSRVTISLDTSKNQFSLKLSSVTAADTAVYYCARDSVAGFSIFDYWGQGTLVTVSS
VL: SSELTQDPAVSVALGQTVRITCQGDSLRSYYASWYQQKPGQAPVRVIYGKNNRPSGIPDRFSGSSSGNTASLTITGAQAEDEADYYCNSWDSSGNHVVFGGGTKLTVL
B14: antibody 294 (antibody, V domains shown)
VH: EVQLVESGGGLVQPGGSLRLSCAASGFTVSSNYMNWVRQAPGKGLEWVSVIYSGGSTYYADSVKGRFTISRDNSKNTLYLQMNSLRAEDTAVYYCARDLGPSGMDVWGQGTTVTVSS
VL: DIQMTQSPSSVSASVGDRVTITCRASQGISSWLAWYQQKPGKAPKLLIYAASSLQSGVPSRFSGSGSGTDFTLTISSLQPEDFATYYCQQANSFPLFGGGTKVEIK
B15: antibody 260 (antibody, V domains shown)
VH: EVQLVESGGGLVQPGRSLRLSCAASGFTFDYYAMHWVRQAPGKGLEWVSGISWNSGTIGYADSVKGRFTISRDNAKNSLYLQMNSLRAEDTALYYCAKDSRPSGRYYYGMDVWGQGTTVTVSS
VL: not shown
B16: antibody 300 (antibody, V domains shown)
VH: QVQLVESGGGVVQPGRSLTLSCAASGFTFSSYAMHWVRQAPGKGLEWVALISYDGNNKYYADSVKGRFTFSRDNSKNTLYLQMNSLRAEDTAVYYCARTNSGSYRTAFDYWGQGTLVTVSS
VL: DIQMTQSPSTLSASVGDRVTITCRASQSISIWLAWYQQKPGKAPKLLIYKASSLESGVPSRFSGSGSGTEFTLTISSLQPDDFATYYCQQYNSLWTFGQGTKVEIK

For the experiment, the target named is SARS-CoV-2 full length spike protein (wild type) (SARS-CoV-2, UniProt P0DTC2 14-1208).
As for B1, the “binding signal, bead assay (fold over isotype)” value came out at 570. Then B2, with 1280. Under B3 stands 1.16.

For the molecule B4, the “binding signal, bead assay (fold over isotype)” value came out at 924. For the molecule B5, the “binding signal, bead assay (fold over isotype)” value turned out to be 599. Take B6: the “binding signal, bead assay (fold over isotype)” value was determined as 1.43. Then B7, with 722; and B8, with 865. Regarding B9, the “binding signal, bead assay (fold over isotype)” value was 495.

On to B10, for which the “binding signal, bead assay (fold over isotype)” value was determined as 473.

In the case of B11, the “binding signal, bead assay (fold over isotype)” value is 598. Take B12: the “binding signal, bead assay (fold over isotype)” value came out at 341. As to B13, the “binding signal, bead assay (fold over isotype)” value was determined as 748. Under B14 stands 1230.

Turning to B15, the “binding signal, bead assay (fold over isotype)” value is 724. In the case of B16, the “binding signal, bead assay (fold over isotype)” value amounted to 721.
